Source: patent publication US20220054630A1
pKd: −log10 of the molar value.

Legend:
sE2 wild-type = sE2 wild-type (UniProt P27958); test: BLI
Wild-type = Wild-type (UniProt P27958); test: BLI

Substance: HC33.1
- pKd (sE2 wild-type): 8.02

Substance: HEPC74
- pKd (sE2 wild-type): 8.29

Substance: CBH-4G
- pKd (sE2 wild-type): 7.82
- pKd (Wild-type): 7.82

Substance: HC84.1
- pKd (sE2 wild-type): 7.52

Substance: CBH-4D
- pKd (sE2 wild-type): 8.08

Substance: HC84.26.WH.5DL
- pKd (sE2 wild-type): 8.37
- pKd (Wild-type): 8.37

Substance: HCV1
- pKd (sE2 wild-type): 7.38
